From article PMC5599508 come the findings set out here.

Experiment [1] concerns the target T15 peptide derived from the human α-tubulin αK40 loop (human).
Experiment [2] concerns the target T9 peptide derived from the human α-tubulin αK40 loop (human).
Experiment [3] addresses free alpha/beta-tubulin dimers from porcine brain (pig (purified from porcine brain)) (UniProt P02550).
Sequence of UniProt P02550 (P02550 whole entry, chain 1 of 2): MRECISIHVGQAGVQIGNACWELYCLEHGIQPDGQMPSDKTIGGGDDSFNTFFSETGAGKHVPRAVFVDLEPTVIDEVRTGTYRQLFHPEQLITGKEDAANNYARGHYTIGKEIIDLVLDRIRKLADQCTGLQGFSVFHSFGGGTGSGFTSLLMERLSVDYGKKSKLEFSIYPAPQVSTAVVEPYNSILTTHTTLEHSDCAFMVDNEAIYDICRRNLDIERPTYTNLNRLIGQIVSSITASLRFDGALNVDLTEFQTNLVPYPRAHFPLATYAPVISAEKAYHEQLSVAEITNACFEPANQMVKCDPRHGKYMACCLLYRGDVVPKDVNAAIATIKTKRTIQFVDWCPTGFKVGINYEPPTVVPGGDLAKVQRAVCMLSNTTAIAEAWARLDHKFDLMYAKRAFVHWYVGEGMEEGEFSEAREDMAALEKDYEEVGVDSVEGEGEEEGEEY
Sequence of UniProt P02550 (P02554 whole entry, chain 2 of 2, further chain): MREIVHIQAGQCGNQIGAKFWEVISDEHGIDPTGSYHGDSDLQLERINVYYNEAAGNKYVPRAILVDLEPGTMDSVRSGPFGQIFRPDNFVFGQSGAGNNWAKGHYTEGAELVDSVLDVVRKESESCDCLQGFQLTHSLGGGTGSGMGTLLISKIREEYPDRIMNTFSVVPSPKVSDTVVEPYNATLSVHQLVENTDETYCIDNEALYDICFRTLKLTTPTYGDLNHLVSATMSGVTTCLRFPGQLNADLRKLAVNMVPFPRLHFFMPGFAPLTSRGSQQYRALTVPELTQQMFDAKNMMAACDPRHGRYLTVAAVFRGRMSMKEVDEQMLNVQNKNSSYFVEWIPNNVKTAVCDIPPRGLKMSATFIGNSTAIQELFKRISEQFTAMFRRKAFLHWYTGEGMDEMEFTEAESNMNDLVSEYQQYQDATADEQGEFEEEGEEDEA

For the substance “untagged full-length human histone deacetylase 6 (from UniProt Q9UBN7-1 1-1215) (enzyme)”, the KM of the deacetylation of the acetylated αK40-derived peptide by HDAC6 (HPLC-based assay) in experiment [1] is 328 µM; in experiment [2], 88 µM. Besides, the KM of the deacetylation of free tubulin dimers by HDAC6 (steady-state kinetics, Western blot quantification) in experiment [3] is 0.23 µM.
